Experimental data published in PMC2648313, “Identification of Rhoptry Trafficking Determinants and Evidence for a Novel Sorting Mechanism in the Malaria Parasite Plasmodium falciparum” (PLoS Pathogens, 2009).
Changes are numbered by the printed parent chain.

Key:
Experiment in all cases: pull-down; 100 ug His6-tagged RAP1 recombinant protein immobilised on TALON resin, incubated O/N at 4 C with purified GST-fusion proteins in pull-down buffer (50 mM Na2HPO4, 75 mM NaCl, 0.1% Triton X-100, 5 mM imidazole, pH 7.4); eluted with imidazole; Coomassie gel and immunoblot with anti-GST
Details in all cases: both partners purified
[1] = molecular target: T1, RAP1(22-152), recombinant His6-tagged RAP1 protein representing amino acids 22-152 (P. falciparum 3D7, UniProt Q9U429 22-152)
T1 construct: contains the RAP1 rhoptry signal (22-55); Amplified from 3D7 genomic DNA, cloned NcoI/XhoI into pET28b upstream of the His6 tag; not shown: His6, C-terminal, kept
T1 sequence: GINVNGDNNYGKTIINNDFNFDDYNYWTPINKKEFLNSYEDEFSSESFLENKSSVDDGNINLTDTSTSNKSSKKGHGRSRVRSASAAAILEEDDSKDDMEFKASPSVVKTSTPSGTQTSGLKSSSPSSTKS

[2] = molecular target: T2, RAP1(22-152) mutant, aspartate 39, 43 and 44 to arginine (P. falciparum 3D7, UniProt Q9U429 22-152, aspartate 39 to arginine | aspartate 43 to arginine | aspartate 44 to arginine)
T2 construct: not shown: His6, C-terminal, kept
T2 sequence: T1 sequence with D18R, D22R, D23R

[3] = molecular target: T3, RAP1(22-152) mutant, residues 40, 42 and 45 to glycine (P. falciparum 3D7, UniProt Q9U429 22-152, aromatic residue 40 to glycine | aromatic residue 42 to glycine | aromatic …)
T3 construct: not shown: His6, C-terminal, kept
T3 sequence: T1 sequence with F19G, F21G, Y24G

[4] = molecular target: T4, RAP1(22-152) mutant, aspartate 39, 43 and 44 to alanine (P. falciparum 3D7, UniProt Q9U429 22-152, aspartate 39 to alanine | aspartate 43 to alanine | aspartate 44 to alanine)
T4 construct: not shown: His6, C-terminal, kept
T4 sequence: T1 sequence with D18A, D22A, D23A

B1: RAMAE, RAMA-GST fusion protein representing amino acids 759-840 (domain or fragment)
chain: DNKFVAHKKREKSISPHSYQKVSTKVQNKENMENKEKKQLINDEAAMTAEELVELENTEDVNTPTMVETEEIDFDENGNKSS
notes: rhoptry associated membrane antigen (RAMA), P. falciparum, amino acids 759-840; source: E. coli BL21 (DE3), purified (glutathione resin)
- binding result [1]: binds
- binding result [2]: binds
- binding result [3]: binds
- binding result [4]: binds

B2: RAMAE1, RAMA-GST fusion protein representing amino acids 759-798 (domain or fragment)
chain: DNKFVAHKKREKSISPHSYQKVSTKVQNKENMENKEKKQL
notes: rhoptry associated membrane antigen (RAMA), P. falciparum, amino acids 759-798; Amplified from P. falciparum cDNA and cloned into pGEX-4T-1; source: E. coli BL21 (DE3), purified (glutathione resin)
- binding result [1]: binds
